The values that follow are results of earlier work, collected in paper PMC10044870.

The target of the data set is cleaved high molecular weight kininogen (HKa) (Homo sapiens) (UniProt P01042).
cleaved high molecular weight kininogen (HKa) (Homo sapiens), sequence (P01042 19-380, chain 1 of 2): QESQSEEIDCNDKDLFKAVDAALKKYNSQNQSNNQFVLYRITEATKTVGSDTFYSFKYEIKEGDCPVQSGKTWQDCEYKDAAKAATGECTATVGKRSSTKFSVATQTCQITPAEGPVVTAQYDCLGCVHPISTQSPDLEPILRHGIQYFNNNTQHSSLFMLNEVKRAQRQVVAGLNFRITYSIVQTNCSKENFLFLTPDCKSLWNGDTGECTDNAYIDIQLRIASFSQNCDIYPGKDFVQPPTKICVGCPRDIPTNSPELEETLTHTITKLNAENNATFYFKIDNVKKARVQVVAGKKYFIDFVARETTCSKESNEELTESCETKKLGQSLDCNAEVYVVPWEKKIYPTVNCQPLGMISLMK
cleaved high molecular weight kininogen (HKa) (Homo sapiens), sequence (P01042 390-644, chain 2 of 2): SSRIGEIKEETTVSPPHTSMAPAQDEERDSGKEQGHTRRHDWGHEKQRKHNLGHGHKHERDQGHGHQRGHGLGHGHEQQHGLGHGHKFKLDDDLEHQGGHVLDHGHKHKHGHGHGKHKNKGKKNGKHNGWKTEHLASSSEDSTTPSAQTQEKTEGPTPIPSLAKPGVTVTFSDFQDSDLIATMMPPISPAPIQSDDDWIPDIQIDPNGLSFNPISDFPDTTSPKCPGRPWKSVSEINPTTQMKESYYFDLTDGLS

ferritin, sequence (P02794 2-183): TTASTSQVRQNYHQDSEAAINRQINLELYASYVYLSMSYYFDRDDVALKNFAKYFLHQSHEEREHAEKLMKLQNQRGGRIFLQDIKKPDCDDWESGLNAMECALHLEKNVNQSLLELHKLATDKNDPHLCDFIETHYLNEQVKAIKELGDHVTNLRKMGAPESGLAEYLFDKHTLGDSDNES
ferritin, sequence (P02792 2-175, further chain): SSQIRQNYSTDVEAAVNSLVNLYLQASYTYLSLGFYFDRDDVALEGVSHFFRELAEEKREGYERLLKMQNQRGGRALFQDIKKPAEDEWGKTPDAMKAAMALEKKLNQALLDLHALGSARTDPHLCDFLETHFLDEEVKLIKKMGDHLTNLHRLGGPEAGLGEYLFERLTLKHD

For the substance ferritin (from UniProt P02794), the dissociation constant Kd is 13 nM.
